From article doi:10.1101/2025.10.17.682828
Read-outs that look alike come from different tables or passages of the source.

Columns and labels:
Human HSP90β (human) [1] = target: Human HSP90β (human) (UniProt P08238); test: cryo-EM structure
Human HSP90β (human) [2] = target: Human HSP90β (human) (UniProt P08238); test: cryo-EM structure; remark: listed apart in the source

Chain of Human HSP90β, P08238 3-724 (natural protein; other documents disagree on this pair) (P08238 3-724): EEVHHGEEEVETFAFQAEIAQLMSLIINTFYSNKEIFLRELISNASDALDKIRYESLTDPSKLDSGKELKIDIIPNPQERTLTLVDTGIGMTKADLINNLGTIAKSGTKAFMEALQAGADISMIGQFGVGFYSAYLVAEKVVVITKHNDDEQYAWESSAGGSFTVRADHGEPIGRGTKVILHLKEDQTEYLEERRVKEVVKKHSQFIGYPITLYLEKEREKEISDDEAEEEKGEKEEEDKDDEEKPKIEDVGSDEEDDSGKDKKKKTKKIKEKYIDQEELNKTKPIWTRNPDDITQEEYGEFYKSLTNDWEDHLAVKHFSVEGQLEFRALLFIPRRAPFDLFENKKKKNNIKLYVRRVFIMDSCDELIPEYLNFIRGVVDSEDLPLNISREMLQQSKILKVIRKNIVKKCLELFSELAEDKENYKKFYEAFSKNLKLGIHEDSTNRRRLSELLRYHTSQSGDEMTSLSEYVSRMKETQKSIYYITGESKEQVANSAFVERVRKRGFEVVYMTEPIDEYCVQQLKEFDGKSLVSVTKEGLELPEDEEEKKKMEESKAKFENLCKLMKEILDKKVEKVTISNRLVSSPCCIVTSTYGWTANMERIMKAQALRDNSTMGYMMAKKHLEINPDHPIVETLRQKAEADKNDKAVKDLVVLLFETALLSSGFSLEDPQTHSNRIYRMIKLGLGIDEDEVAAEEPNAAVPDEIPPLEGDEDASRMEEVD

Work on “Human HSP90β, P08238 3-724 (natural protein; other documents disagree on this pair)” yielded a stoichiometry N (Human HSP90β (human) [1]) of 2 and a stoichiometry N (Human HSP90β (human) [2]) of 2.
